The source of these data is paper PMC4072508, “Genome-Wide Prediction and Validation of Peptides That Bind Human Prosurvival Bcl-2 Proteins” (PLoS Computational Biology, 2014).

One test has as its target Bcl-xL, Q07817. Nature of the test: peptide SPOT array, c-Myc-tagged receptor at 1 uM or 100 nM, anti-c-Myc-Cy3.
The target in a further test is T1, Mcl-1, Q07820.
T1 chain: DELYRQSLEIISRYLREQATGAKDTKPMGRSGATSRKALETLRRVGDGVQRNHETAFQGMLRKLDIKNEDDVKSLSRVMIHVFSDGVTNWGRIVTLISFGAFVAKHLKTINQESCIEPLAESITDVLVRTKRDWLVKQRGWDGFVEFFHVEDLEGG
The description is as above.

Chain of Bcl-xL, Q07817 (Q07817 1-209): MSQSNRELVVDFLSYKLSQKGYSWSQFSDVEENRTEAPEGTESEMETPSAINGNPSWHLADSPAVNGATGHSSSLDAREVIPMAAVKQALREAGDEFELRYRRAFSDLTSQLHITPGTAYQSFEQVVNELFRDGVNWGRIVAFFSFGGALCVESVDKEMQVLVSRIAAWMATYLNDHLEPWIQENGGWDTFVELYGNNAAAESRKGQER

For RQAFYLHTTKDTRIARRLCREILRPW [MTA1], in the test with Bcl-xL, Q07817, the SPOT signal as a fraction of Bim BH3's signal on the same receptor and array amounted to 1.26.

In turn, FVENASIAYALKNVSGKIWDEDNEKI [NXF3] had an SPOT signal as a fraction of Bim BH3's signal on the same receptor and array in the test with Mcl-1, Q07820 of 0.02. VLLLSSSVNSLRKAAHEALQDFQKYK [DNAH8] returned an SPOT signal as a fraction of Bim BH3's signal on the same receptor and array with Mcl-1, Q07820 of 0.19. The molecule AASDFRTSVVLNHLAEKWFPGQRERA [LONRF1] yielded an SPOT signal as a fraction of Bim BH3's signal on the same receptor and array with Mcl-1, Q07820 of 0.07. In the case of RGLEQHVALYLEHGADVGLRTSQGET [ASB16], the SPOT signal as a fraction of Bim BH3's signal on the same receptor and array with Mcl-1, Q07820 was 0.02. The molecule YGKVRKAASSIDQFSIRLGIFLRRYP [GOLGA5] came in with an SPOT signal as a fraction of Bim BH3's signal on the same receptor and array with Mcl-1, Q07820 of 0.29. On the same count and under the same terms, under TTLEMEFAKGLQKIAHNCRQSVMQEP [HMHA1] stands 0.02; under PSTYLAVAEELADVSGKYFDGLKQKA [RDH13], 0.05. In turn, PESTKRSALCIFKIARKLLFLFRIKE [UBE3B] displayed an SPOT signal as a fraction of Bim BH3's signal on the same receptor and array with Mcl-1, Q07820 of 0.1. Molecule ATPPAASPSALKGVSQDLLERIRAKE [CDT1] showed an SPOT signal as a fraction of Bim BH3's signal on the same receptor and array with Mcl-1, Q07820 of 0.03. In the test with Mcl-1, Q07820, LGKRTSSVQALKRSARELIEGSRDDS [DST] came in with an SPOT signal as a fraction of Bim BH3's signal on the same receptor and array of 0.05. In the test with Bcl-xL, Q07817, REHIKLLIQKLTDVAEECQNNQLKKL [PLCB1] displayed an SPOT signal as a fraction of Bim BH3's signal on the same receptor and array of 0.05.

Take AVLSPQSADNLKQVARSLFLLGKHKA [BBS4]: in the test with Mcl-1, Q07820, the SPOT signal as a fraction of Bim BH3's signal on the same receptor and array came to 0.2. The molecule EGPEVICAQILQGCAKQALEKLEEKR [NCAPD2] came in with an SPOT signal as a fraction of Bim BH3's signal on the same receptor and array with Mcl-1, Q07820 of 0.02. In the test with Mcl-1, Q07820, RDSFKHLIGGLDDVSNKAYEDAEAKA [PRKG1] showed an SPOT signal as a fraction of Bim BH3's signal on the same receptor and array of 0.01. Turning to DLVVSELATVIKKCAEKLSSYPRLRE [DNM2], the SPOT signal as a fraction of Bim BH3's signal on the same receptor and array with Mcl-1, Q07820 was 0.06. In turn, IPGSAVCAFDLTQVAAVFEGRFREQK [SEMA6B] had an SPOT signal as a fraction of Bim BH3's signal on the same receptor and array in the test with Mcl-1, Q07820 of 0.02. Consider YYSSRQYASALKHIAEIIERGIRQHP [TTC30A], for which, in the test with Mcl-1, Q07820, the SPOT signal as a fraction of Bim BH3's signal on the same receptor and array came to 0.08. On to GPEHPAVAATLNNLAVLYGKRGRYRE, for which the SPOT signal as a fraction of Bim BH3's signal on the same receptor and array with Mcl-1, Q07820 is 0.28.

Take MKLRNLFTKFIRKFGFELVKRLLPEE [RRP12]: the SPOT signal as a fraction of Bim BH3's signal on the same receptor and array with Mcl-1, Q07820 was 0.14. Same read-out and setting: as for TYEKPQVAEALQRAARIAISVIEFKP [RTDR1], the figure is 0.02. As to WLVLRRLVTLITQLAKELSNKGVLKT [BCAP29], the SPOT signal as a fraction of Bim BH3's signal on the same receptor and array in the test with Bcl-xL, Q07817 was 0.35. In the test with Mcl-1, Q07820, GADHPDVAKQLNNLALLCQNQGKFED came in with an SPOT signal as a fraction of Bim BH3's signal on the same receptor and array of 0.01. Take EGAKSETAEELKKVAQELEEKLNILN [APOL1]: the SPOT signal as a fraction of Bim BH3's signal on the same receptor and array with Mcl-1, Q07820 was found to be 0.01. Take PEVRKVLADVLQDIANDNISSADYTQ [ARSG]: the SPOT signal as a fraction of Bim BH3's signal on the same receptor and array with Mcl-1, Q07820 came out at 0.01. The molecule GSIAKKFSAALQKLSSHLQPRVPEHS [ANO2] registered an SPOT signal as a fraction of Bim BH3's signal on the same receptor and array with Bcl-xL, Q07817 of 0.11.

Molecule LFHLLEFCLLLNQFSRAVAAKWKDDV [RLN1] showed an SPOT signal as a fraction of Bim BH3's signal on the same receptor and array in the test with Mcl-1, Q07820 of 0.02. In the test with Mcl-1, Q07820, AEIEMDYSRNLEKLAERFLAKTRSTK [SRGAP2] returned an SPOT signal as a fraction of Bim BH3's signal on the same receptor and array of 0.08. QDTEQFVATVLQAASRDLDWEVRAQG [C7orf27]: the SPOT signal as a fraction of Bim BH3's signal on the same receptor and array with Mcl-1, Q07820 stood at 0.02. Same read-out and setting: as for EDLQQVIASVLRNLSWRADVNSKKTL [APC], the figure is 0.07. VPKIASVVGILGHLASRHGDSIRREL [INTS5]: the SPOT signal as a fraction of Bim BH3's signal on the same receptor and array with Mcl-1, Q07820 worked out at 0.05. With EDLKENLAAGIKQIAEFLGFFLTGEQ [SULT6B1], in the test with Mcl-1, Q07820, the SPOT signal as a fraction of Bim BH3's signal on the same receptor and array turned out to be 0.02. On the same count and under the same terms, under NPKNKTHACYLKELGEQFVVRANHQV [NWD1] stands 0.04. With KYDPSKYCHNDKKIGEDFSNTIPISS [NOL8], in the test with Bcl-xL, Q07817, the SPOT signal as a fraction of Bim BH3's signal on the same receptor and array was 0.08. As for CYRGQLAASVLRQISRELGPQEPTGS [FAM129C], the SPOT signal as a fraction of Bim BH3's signal on the same receptor and array with Mcl-1, Q07820 worked out at 0.07.

As for HQQLTRAARLISETAQRVHTIGQKQK [C9orf100], in the test with Mcl-1, Q07820, the SPOT signal as a fraction of Bim BH3's signal on the same receptor and array is 0.57. Turning to RLKVMPFAGVLEHIGGIMEIQLEENP [SLITRK2], the SPOT signal as a fraction of Bim BH3's signal on the same receptor and array with Mcl-1, Q07820 is 0.02. GFKTTVYVSHINDLSDFYVQLIEDEA [TDRD6] displayed an SPOT signal as a fraction of Bim BH3's signal on the same receptor and array with Mcl-1, Q07820 of 0.02. In the test with Mcl-1, Q07820, DRFEGYCIDLLKELAHILGFSYEIRL [GRIK3] came in with an SPOT signal as a fraction of Bim BH3's signal on the same receptor and array of 0.02. In the test with Mcl-1, Q07820, TSMETIGAKALEDFADNIKNDPDKEY [EXOC7] yielded an SPOT signal as a fraction of Bim BH3's signal on the same receptor and array of 0.01. Molecule SGKLKEMVPIIAQYGDVLVRNLRREA [CYP3A4] yielded an SPOT signal as a fraction of Bim BH3's signal on the same receptor and array with Mcl-1, Q07820 of 0.07. As to RLRSEYVAQCLGRAAQGGCPRARCRR [GFRA4], the SPOT signal as a fraction of Bim BH3's signal on the same receptor and array in the test with Mcl-1, Q07820 turned out to be 0.8.

In the test with Mcl-1, Q07820, FGDEGAVIEVLHRGSADLNARNKRRQ [MIB1] came in with an SPOT signal as a fraction of Bim BH3's signal on the same receptor and array of 0.05. AFVGRLVSTLISKAGRELGENLDQIL [IPO9] gave an SPOT signal as a fraction of Bim BH3's signal on the same receptor and array in the test with Mcl-1, Q07820 of 0.03. The same measure, in the same setting: as for DLDSNQAAMVLIRLSHLLSEKPEDKG [TBRG4], the figure is 0.02; as for RDHDEFIINLIRGLGGNLNMKSRLEF [DYNC2H1], 0.03; as for DIARSTLAKIIEDLGVHFLLYVLKEL [UTP20], 0.02. Molecule AEIETEYSRNLEKLAERFMAKTRSTK [SRGAP1] had an SPOT signal as a fraction of Bim BH3's signal on the same receptor and array with Mcl-1, Q07820 of 0.11.

In the test with Bcl-xL, Q07817, CLSCDLCGCRLGEVLRRLYYKLGRKL [LMO2] yielded an SPOT signal as a fraction of Bim BH3's signal on the same receptor and array of 0.54. For TGKDRLTAGLINIVSFDLLSKLEKQL [SMARCAL1], the SPOT signal as a fraction of Bim BH3's signal on the same receptor and array in the test with Mcl-1, Q07820 is 0.02.
